The source of these data is patent US20200239541A1 (XYPHOS BIOSCIENCES, published 2020).

Numbering of substitutions follows the chain as printed. Names may count otherwise.

The chains are these.
T1: biotinylated human NKG2D (Example 1) (human, UniProt P26718 78-216)
T1 construct: also called recombinant biotinylated NKG2D
T1 sequence (looked up): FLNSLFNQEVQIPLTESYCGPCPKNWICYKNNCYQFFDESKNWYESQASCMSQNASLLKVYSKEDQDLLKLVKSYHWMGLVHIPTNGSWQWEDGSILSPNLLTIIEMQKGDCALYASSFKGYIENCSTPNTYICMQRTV

T2: NKG2D on the human NK cell line NKL (human, UniProt P26718 1-216)
T2 sequence (looked up): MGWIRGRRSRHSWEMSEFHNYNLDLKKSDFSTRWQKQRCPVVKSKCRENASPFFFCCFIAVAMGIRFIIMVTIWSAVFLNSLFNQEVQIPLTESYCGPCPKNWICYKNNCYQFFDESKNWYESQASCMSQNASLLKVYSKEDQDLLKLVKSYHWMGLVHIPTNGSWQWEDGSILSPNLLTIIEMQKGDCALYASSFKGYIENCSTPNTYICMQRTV

T3: human NKG2D-Fc (human, UniProt P26718 78-216)
T3 construct: also called natural NKG2D-Fc; not shown: Fc
T3 sequence (looked up): T1 sequence (looked up)

T4: MICB-Fc (R&D Systems) (human, UniProt Q29980 23-298)
T4 construct: not shown: Fc of the bought reagent
T4 sequence (looked up): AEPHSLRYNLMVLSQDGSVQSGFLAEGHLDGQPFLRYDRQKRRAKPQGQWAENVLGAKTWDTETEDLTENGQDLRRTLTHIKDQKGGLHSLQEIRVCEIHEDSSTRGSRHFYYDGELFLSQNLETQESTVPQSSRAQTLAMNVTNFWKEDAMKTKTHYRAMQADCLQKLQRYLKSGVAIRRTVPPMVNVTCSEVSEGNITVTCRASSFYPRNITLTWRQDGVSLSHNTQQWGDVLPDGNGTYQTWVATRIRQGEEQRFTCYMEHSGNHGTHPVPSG

T5: ULBP1-Fc (R&D Systems) (human, UniProt Q9BZM6 26-216)
T5 construct: not shown: Fc of the bought reagent
T5 sequence (looked up): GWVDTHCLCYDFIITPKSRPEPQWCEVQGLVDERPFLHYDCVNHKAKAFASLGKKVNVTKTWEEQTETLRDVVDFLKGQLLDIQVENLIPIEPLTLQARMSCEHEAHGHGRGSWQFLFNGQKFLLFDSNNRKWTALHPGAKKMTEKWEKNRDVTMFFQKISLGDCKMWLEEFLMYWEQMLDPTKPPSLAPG

T6: ULBP2-Fc (R&D Systems) (human, UniProt Q9BZM5 26-217)
T6 construct: not shown: Fc of the bought reagent
T6 sequence (looked up): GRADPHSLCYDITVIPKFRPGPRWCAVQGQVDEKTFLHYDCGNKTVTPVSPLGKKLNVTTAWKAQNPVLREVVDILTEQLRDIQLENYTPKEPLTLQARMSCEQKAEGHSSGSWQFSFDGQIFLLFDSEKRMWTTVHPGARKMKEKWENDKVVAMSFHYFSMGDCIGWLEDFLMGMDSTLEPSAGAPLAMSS

T7: ULBP3-Fc (R&D Systems) (human, UniProt Q9BZM4 30-217)
T7 construct: not shown: Fc of the bought reagent
T7 sequence (looked up): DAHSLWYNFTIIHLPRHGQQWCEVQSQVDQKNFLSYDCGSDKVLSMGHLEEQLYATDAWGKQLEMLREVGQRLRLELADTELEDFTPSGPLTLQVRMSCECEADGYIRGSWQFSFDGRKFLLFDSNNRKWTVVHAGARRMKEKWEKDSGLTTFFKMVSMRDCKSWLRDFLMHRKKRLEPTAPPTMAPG

T8: ULBP4-Fc (R&D Systems) (human, UniProt Q8TD07 31-225)
T8 construct: not shown: Fc of the bought reagent
T8 sequence (looked up): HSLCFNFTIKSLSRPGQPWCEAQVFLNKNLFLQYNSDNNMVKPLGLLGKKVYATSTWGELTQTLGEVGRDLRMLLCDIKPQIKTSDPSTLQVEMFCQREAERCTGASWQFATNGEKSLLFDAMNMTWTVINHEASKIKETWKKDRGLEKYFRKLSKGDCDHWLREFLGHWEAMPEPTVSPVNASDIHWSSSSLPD

B1: α1-α2 variant 16 (His-tagged, with attached heterologous polypeptide) (ligand)
chain: EPHSLRYNLTVLSWDGSVQSGFLTEVHLDGQPFLRCDRQKCRAKPQGQWAEDVLGNKTWDRETRDLTGWGKDLRMTLAHIKDQKEGLHSLQEIRVCEIHEDNSTRSSQHFYYDGELFLSQNLETLEWTMPQSSRAQTLAMNVRNFLKEDAMETDTHYHAMRADCLQELRRYLKSGVVLRRTVPPMVQVTRSEASGGSGDRVTITCRASQDVSTAVAWYQQKPGKAPKLLIYSASFLYSGVPSRFSGSGSGTDFTLTISSLQPEDFATYYCQQSYTTPPTFGQGTKVEIKGGSSRSSSSGGGGSGGGGEVQLVESGGGLVQPGGSLRLSCAASGFTFTSTGISWVRQAPGKGLEWVGRIYPTNGSTNYADSVKGRFTISADTSKNTAYLQMNSLRAEDTAVYYCARTYGIYDLYVDYTEYVMDYWGQGTLVTVSSGGSSRSSSSGGGGSGGGGDIQMTQSPSSLSASGGSGQITVTCRASGFYPWNITLSWRQDGVSLSHDTQQWGDVLPDGQGTYQTWVATRISQGEEQRFTCYMEHSGQHSTHPVPSGKGSHHHHHH
B2: α1-α2 variant 17 (His-tagged, with attached heterologous polypeptide) (ligand)
chain: B1 chain with G68L
B3: α1-α2 variant 18 (His-tagged, with attached heterologous polypeptide) (ligand)
chain: B1 chain with S20P, G68L
B4: WED-MICA α1-α2 domain (N69W, K152E, K154D) (ligand)
chain: B1 chain with L125K, R161H
notes: also called WED-α1-α2; MICwed
B5: α1-α2 variant 15 (His-tagged, with attached heterologous polypeptide) (ligand)
chain: B1 chain with L125N
B6: His-avitag natural NKG2D ectodomain, biotinylated (receptor)
chain: EPHHHHHHGLNDIFEAQKIEWHENSLFNQEVQIPLTESYCGPCPKNWICYKNNCYQFFDESKNWYESQASCMSQNASLLKVYSKEDQDLLKLVKSYHWMGLVHIPTNGSWQWEDGSILSPNLLTIIEMQKGDCALYASSFKGYIENCSTPNTYICMQRTV
notes: also called natural form of the ectodomain of NKG2D
B7: Y152A mutant NKG2D ectodomain (His-avitag, biotinylated) (receptor)
chain: B6 chain with Y96A
notes: also called Y152A non-natural NKG2D receptor; not shown: N-terminal His-avitag
B8: double Y152A plus Y199A mutant NKG2D ectodomain (His-avitag, biotinylated) (receptor)
chain: B6 chain with Y96A, Y143A
notes: not shown: N-terminal His-avitag
B9: Y199A mutant NKG2D ectodomain (His-avitag, biotinylated) (receptor)
chain: B6 chain with Y143A
notes: as for B8

The target of one assay is T1, biotinylated human NKG2D (Example 1). Nature of the assay: BLI (Octet). (In BLI a coated tip is dipped into the sample, and binding shifts an interference pattern.)
As to B1, the “fold affinity increase relative to WT α1-α2” value is ~30 fold and the “fold reduction in off-rate relative to WT” value is 18 fold.

As for B2, the “fold affinity increase relative to WT α1-α2” value was ~30 fold and the “fold reduction in off-rate relative to WT” value stood at 18 fold.

For B3, the “fold affinity increase relative to WT α1-α2” value is ~30 fold and the “fold reduction in off-rate relative to WT” value stood at 18 fold.

The next assay deals with T2, NKG2D on the human NK cell line NKL. Nature of the assay: cell-based or functional assay.
For B1, the “NKL cell-mediated lysis of FGFR3-expressing P815 cells (calcein release)” value (“NKL cell-mediated lysis … (calcein release)” for short) was ~15 fold.

For B2, the “NKL cell-mediated lysis … (calcein release)” value is ~15 fold.

In the case of B3, the “NKL cell-mediated lysis … (calcein release)” value was ~15 fold.

The target in another assay is T1, biotinylated human NKG2D (Example 1). Description: BLI (Octet), Kd = kOFF/kON.
Broadly, the Kd is a measure of binding affinity in units of concentration. B1 came in with an equilibrium dissociation constant (Kd) of 0.5 nM.

In turn, B4 showed a Kd of 5.9 nM.

The molecule B2 showed a Kd of 0.4 nM.

With B3, the affinity, expressed as Kd, was 0.4 nM.

B5 showed a Kd of 1.5 nM.

For another assay, the target named is T3, human NKG2D-Fc. Description: competition ELISA vs coated WT sMICA. The source says: (§1) To the NKG2DLs in the above example, we directly attached heterologous molecules such as a polypeptide to each of these 4 modified α1-α2 NKG2DLs using a linker peptide. Four His-tagged proteins (SEQ ID NOs.: 25-28) consisting of modified NKG2DLs with attached heterologous molecules were expressed in insect cells and purified to characterize their NKG2D binding affinities and kinetic binding parameters. Using a competitive binding ELISA, we determined the relative NKG2D binding affinities of the 4 modified α1-α2 variants.
On the technique in general: ELISA stands for enzyme-linked immunosorbent assay.
Take B1: the “fold better binding than WT NKG2DL” value turned out to be 27 fold.

Take B2: the “fold better binding than WT NKG2DL” value stood at 32 fold.

For B3, the “fold better binding than WT NKG2DL” value was determined as 38 fold.

B5: the “fold better binding than WT NKG2DL” value was determined as 11 fold.

The target in a further assay is T4, MICB-Fc (R&D Systems). Nature of the assay: ELISA, ligand-Fc coated, biotinylated NKG2D titrated. The procedure: (§2) In addition to purifying the above 3 Fc-fusion proteins NKG2D ligand-Fc fusion proteins MICB-Fc, ULBP1-Fc, ULBP2-Fc, ULBP3-Fc, and ULBP4-Fc were purchased from R&D Systems, Inc. (Minneapolis, Minn.). Binding of the different α1-α2 domain-Fc fusions to both natural and non-natural NKG2D ectodomain proteins was analyzed using a plate-based ELISA method. All of the natural and non-natural α1-α2 domain-Fc fusions were coated overnight at 4° C. onto separate wells of Maxisorp 96 well plates using a coating concentration of 2 μg/ml in phosphate-buffered saline (PBS). The plates were washed 3-times in PBS/0.05% Tween20 at 20-22° C., and blocked with 0.5% bovine serum albumin for 2 hours. The biotinylated natural and non-natural NKG2D receptor proteins were titrated against the plate-bound NKG2D ligands for 2 hours at 20-22° C., washed 3 times with PBS/0.05% Tween20 at 20-22° C., and the bound NKG2D proteins subsequently detected using a streptavidin-HRP secondary detection step and developed with 1-Step Ultra TMB Elisa.
Regarding B6, the binding result is listed as “binds”.

B7: the binding result was “no binding”.

For the molecule B8, the binding result is on record as “no binding”.

Regarding B9, the binding result is “no binding”.

In another assay the target is T5, ULBP1-Fc (R&D Systems). The description is as above. Here is the method:
as §2
B6: the binding result is recorded as “binds”.

Consider B7, for which the binding result was “no binding”.

Turning to B8, the binding result was “no binding”.

Consider B9, for which the binding result is on record as “no binding”.

Another assay deals with T6, ULBP2-Fc (R&D Systems). The assay is described as above. The procedure:
as §2
As for B6, the binding result was “binds”.

With B7, the binding result is “no binding”.

B8: the binding result is given as “no binding”.

Consider B9, for which the binding result is “no binding”.

The next assay has as its target T7, ULBP3-Fc (R&D Systems). Described as above. The procedure:
as §2
For the molecule B6, the binding result is on record as “binds”.

With B7, the binding result is given as “no binding”.

Take B8: the binding result is given as “no binding”.

As to B9, the binding result was “no binding”.

The target in the next assay is T8, ULBP4-Fc (R&D Systems). The description is as above. Here is the method:
as §2
With B6, the binding result is “binds”.

Regarding B7, the binding result is recorded as “no binding”.

As for B8, the binding result is listed as “no binding”.

As to B9, the binding result is listed as “no binding”.

The next assay addresses T3, human NKG2D-Fc. Nature of the assay: competition ELISA vs coated WT sMICA, 2 nM human NKG2D-Fc.
Source text: as §1
What is called IC50 is the concentration at which inhibition is half-maximal. Read a high IC50 as weaker potency. In turn, B1 registered an IC50 of 0.7 nM.

In turn, B4 had an IC50 of 4.4 nM.

As to B2, the IC50 is 0.6 nM.

B3 gave an IC50 of 0.5 nM.

Turning to B5, the IC50 is 1.7 nM.

Another assay addresses T1, biotinylated human NKG2D (Example 1). Description: BLI (Octet), biotinylated human NKG2D coated, 100 nM analyte.
As usually defined, the koff is a measure of how fast the partners let go of each other. A higher koff goes with a short-lived complex. The term kon denotes a measure of how fast the partners come together. Read a high kon as faster complex formation. B1 had a koff of 9e-05 s⁻¹ and an association rate constant (kon) of 200000 M⁻¹ s⁻¹.

B4 showed a koff of 0.0017 s⁻¹ and a kon of 290000 M⁻¹ s⁻¹.

The molecule B2 came in with a koff of 7e-05 s⁻¹ and a kon of 200000 M⁻¹ s⁻¹.

With B3, the koff came to 9e-05 s⁻¹ and the kon stood at 230000 M⁻¹ s⁻¹.

As for B5, the koff stood at 0.00011 s⁻¹ and the kon was found to be 70000 M⁻¹ s⁻¹.
